From US7413870B2, “SAK: modulation of cellular proliferation for treatment of cancer” (Rigel Pharmaceuticals, Incorporated, priority 2001, dated 2008)
Positions count from the first letter of the chain named. Numbers in names are those of the source. Where two headings read alike, the source gives them in different places.

Columns and labels:
[1] = test system: CHO cells; details: overexpression in CHO cells; cited from earlier work
[2] = test system: normal cells; experiment: antiproliferative effect of SAK wild type/mutants in normal cells (GFP positivity, cell tracker); type: cell-based
[3] = test system: H1299 cells; experiment: antiproliferative effect of SAK mutant in H1299 cells; type: cell-based

B1: wild type mouse SAK: wild type mouse SAK overexpressed in CHO cells, from cited U.S. patents (protein, UniProt Q64702 1-925, looked up)
Serine/threonine-protein …: MAACIGERIEDFKVGNLLGKGSFAGVYRAESIHTGLEVAIKMIDKKAMYKAGMVQRVQNEVKIHCQLKHPSVLELYNYFEDNNYVYLVLEMCHNGEMNRYLKNRMKPFSEREARHFMHQIITGMLYLHSHGILHRDLTLSNILLTRNMNIKIADFGLATQLNMPHEKHYTLCGTPNYISPEIATRSAHGLESDIWSLGCMFYTLLIGRPPFDTDTVKNTLNKVVLADYEMPAFLSREAQDLIHQLLRRNPADRLSLSSVLDHPFMSRNPSPKSKDVGTVEDSMDSGHATLSTTITASSGTSLSGSLLDRRLLVGQPLPNKITVFQKNKNSSDFSSGDGSNFCTQWGNPEQEANSRGRGRVIEDAEERPHSRYLRRAHSSDRASPSNQSRAKTYSVERCHSVEMLSKPRRSLDENQHSSNHHCLGKTPFPFADQTPQMEMVQQWFGNLQMNAHLGETNEHHTVSPNRDFQDYPDLQDTLRNAWTDTRASKNADTSANVHAVKQLSAMKYMSAHHHKPEVMPQEPGLHPHSEQSKNRSMESTLGYQKPTLRSITSPLIAHRLKPIRQKTKKAVVSILDSEEVCVELLRECASEGYVKEVLQISSDGTMITVYYPNDGRGFPLADRPPLPTDNISRYSFDNLPEKYWRKYQYASRFIQLVRSKTPKITYFTRYAKCILMENSPGADFEVWFYDGAKIHKTENLIHIIEKTGISYNLKNENEVTSLKEEVKVYMDHANEGHRICLSLESVISEEEKRSRGSSFFPIIVGRKPGNTSSPKALSAPPVDPSCCKGEQASASRLSVNSAAFPTQSPGLSPSTVTVEGLGHTATATGTGVSSSLPKSAQLLKSVFVKNVGWATQLTSGAVWVQFNDGSQLVVQAGVSSISYTSPDGQTTRYGENEKLPEYIKQKLQCLSSILLMFSNPTPNFQ
- antiproliferative effect [1]: antiproliferative

B2: SAK wild type: wild type human SAK serine/threonine kinase (SEQ ID NO:2), overexpressed in cells (protein, UniProt O00444 1-970, looked up)
Serine/threonine-protein …: MATCIGEKIEDFKVGNLLGKGSFAGVYRAESIHTGLEVAIKMIDKKAMYKAGMVQRVQNEVKIHCQLKHPSILELYNYFEDSNYVYLVLEMCHNGEMNRYLKNRVKPFSENEARHFMHQIITGMLYLHSHGILHRDLTLSNLLLTRNMNIKIADFGLATQLKMPHEKHYTLCGTPNYISPEIATRSAHGLESDVWSLGCMFYTLLIGRPPFDTDTVKNTLNKVVLADYEMPSFLSIEAKDLIHQLLRRNPADRLSLSSVLDHPFMSRNSSTKSKDLGTVEDSIDSGHATISTAITASSSTSISGSLFDKRRLLIGQPLPNKMTVFPKNKSSTDFSSSGDGNSFYTQWGNQETSNSGRGRVIQDAEERPHSRYLRRAYSSDRSGTSNSQSQAKTYTMERCHSAEMLSVSKRSGGGENEERYSPTDNNANIFNFFKEKTSSSSGSFERPDNNQALSNHLCPGKTPFPFADPTPQTETVQQWFGNLQINAHLRKTTEYDSISPNRDFQGHPDLQKDTSKNAWTDTKVKKNSDASDNAHSVKQQNTMKYMTALHSKPEIIQQECVFGSDPLSEQSKTRGMEPPWGYQNRTLRSITSPLVAHRLKPIRQKTKKAVVSILDSEEVCVELVKEYASQEYVKEVLQISSDGNTITIYYPNGGRGFPLADRPPSPTDNISRYSFDNLPEKYWRKYQYASRFVQLVRSKSPKITYFTRYAKCILMENSPGADFEVWFYDGVKIHKTEDFIQVIEKTGKSYTLKSESEVNSLKEEIKMYMDHANEGHRICLALESIISEEERKTRSAPFFPIIIGRKPGSTSSPKALSPPPSVDSNYPTRERASFNRMVMHSAASPTQAPILNPSMVTNEGLGLTTTASGTDISSNSLKDCLPKSAQLLKSVFVKNVGWATQLTSGAVWVQFNDGSQLVVQAGVSSISYTSPNGQTTRYGENEKLPDYIKQKLQCLSSILLMFSNPTPNFH
- antiproliferative activity [2]: do not have significant antiproliferative activity
- antiproliferative effect ([2]; GFP positivity studies): no antiproliferative effect
- antiproliferative activity ([2]; listed as wild type SAK): neither wild type nor mutant SAK is antiproliferative

B3: SAK K41M mutant: mutant SAK (K41M) serine/threonine kinase, overexpressed in cells in dominant negative studies (protein, UniProt O00444 1-970, looked up, variant K41M)
Serine/threonine-protein …: B2 Serine/threonine-protein … with K41M
- antiproliferative effect [3]: weak antiproliferative effect
- antiproliferative activity [2]: does not have strong antiproliferative effects
